From patent US20140234303A1

Target: mGCSF (R&D Systems Cat#414-CS) (mouse (printed as 'm')) (UniProt P09920)
Test: cell-based or functional assay

UniProt P09920, sequence (P09920 31-208 limits assumed): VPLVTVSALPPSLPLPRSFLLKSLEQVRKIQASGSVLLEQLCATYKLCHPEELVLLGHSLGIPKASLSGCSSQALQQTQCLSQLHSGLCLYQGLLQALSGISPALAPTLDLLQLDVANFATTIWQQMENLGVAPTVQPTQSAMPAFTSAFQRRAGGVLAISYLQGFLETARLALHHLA

Row | inhibition of mG-CSF proliferation of hG-CSFR BaF3 cells (MTS reduction), IC50 | Substance
1 | 0.01 nM | Neutralizing anti-G-CSF (MAB414), R&D Systems (antibody)
2 | 0.022 nM | soluble hG-CSFR-Fc protein (from UniProt Q99062 25-627) (Fc fusion)
